Measurements reported in US20080138349A1.

These substances were tested against FcγRIIB (CD32B), soluble dimeric Fc fusion (human) (UniProt P31994) (assay: Biacore SPR).
FcγRIIB (CD32B), soluble dimeric Fc fusion (human), sequence (P31994 43-217): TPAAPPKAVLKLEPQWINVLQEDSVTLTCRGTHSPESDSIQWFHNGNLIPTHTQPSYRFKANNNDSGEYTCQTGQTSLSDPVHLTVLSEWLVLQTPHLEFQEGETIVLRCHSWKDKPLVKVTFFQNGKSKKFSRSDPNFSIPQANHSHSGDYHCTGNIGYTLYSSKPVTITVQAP

Row | Koff WT/Koff mutant | Substance
1 | 0.38 | Immunoglobulin with variant Fc region R255L P396L D270E F243L (antibody)
2 | 2.22 | Immunoglobulin with variant Fc region R255L P396L (antibody)
3 | 0.44 | Immunoglobulin with variant Fc region K392T P396L D270E F243L (antibody)
4 | 2.35 | Immunoglobulin with variant Fc region K392T P396L (antibody)

These substances were tested against FcγRIIIA 158F (CD16A F158), soluble monomer (human) (UniProt P08637) (assay: Biacore SPR).
FcγRIIIA 158F (CD16A F158), soluble monomer (human), sequence (P08637 17-208): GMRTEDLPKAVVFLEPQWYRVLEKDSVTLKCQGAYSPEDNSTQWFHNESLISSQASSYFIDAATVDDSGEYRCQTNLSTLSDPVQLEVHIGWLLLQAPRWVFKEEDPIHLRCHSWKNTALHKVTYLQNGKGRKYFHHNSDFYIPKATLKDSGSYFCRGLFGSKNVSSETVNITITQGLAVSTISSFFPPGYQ

Row | Koff WT/Koff mutant | Substance
5 | 1.64 | Immunoglobulin with variant Fc region R255L P396L D270E F243L (antibody)
6 | 1.39 | Immunoglobulin with variant Fc region R255L P396L (antibody)
7 | 2.44 | Immunoglobulin with variant Fc region K392T P396L D270E F243L (antibody)
8 | 1.81 | Immunoglobulin with variant Fc region K392T P396L (antibody)

The substances below were run against FcγRIIIA 158V (CD16A V158), soluble monomer (human) (UniProt P08637) (assay: Biacore SPR).
FcγRIIIA 158V (CD16A V158), soluble monomer (human), sequence (P08637 17-208 F176V): as the sequence (P08637 17-208) above, with F160V counted along it

Row | Koff WT/Koff mutant | Substance
9 | 1.75 | Immunoglobulin with variant Fc region R255L P396L D270E F243L (antibody)
10 | 1.09 | Immunoglobulin with variant Fc region R255L P396L (antibody)
11 | 3.16 | Immunoglobulin with variant Fc region K392T P396L D270E F243L (antibody)
12 | 1.49 | Immunoglobulin with variant Fc region K392T P396L (antibody)

What follows are substances tested against FcγRIIA 131H (CD32A H131), soluble dimeric Fc fusion (human) (UniProt P12318) (assay: method not given).
FcγRIIA 131H (CD32A H131), soluble dimeric Fc fusion (human), sequence (P12318 34-217): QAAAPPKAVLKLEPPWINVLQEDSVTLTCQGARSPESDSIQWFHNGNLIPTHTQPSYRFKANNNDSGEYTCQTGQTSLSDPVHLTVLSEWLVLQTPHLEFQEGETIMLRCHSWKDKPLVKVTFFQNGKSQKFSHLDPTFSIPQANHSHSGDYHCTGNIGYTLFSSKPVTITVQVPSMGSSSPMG

Row | Substance | binding relative to wt (wt = 1)
13 | Immunoglobulin with variant Fc region L234F, F243L, R292P, Y300L (antibody) | 0.3
14 | Immunoglobulin with variant Fc region L235Q, F243L, R292P, Y300L (antibody) | 0.2

The next lines start with the values.

Row | binding relative to wt (wt = 1) | Substance
15 | 1.3 | Immunoglobulin with variant Fc region L235V, F243L, R292P, Y300L, P396L (antibody)
16 | 0.5 | Immunoglobulin with variant Fc region L235I, F243L, R292P, Y300L (antibody)

These substances were tested against FcγRIIA 131R (CD32A R131), soluble dimeric Fc fusion (human) (UniProt P12318) (assay: method not given).
FcγRIIA 131R (CD32A R131), soluble dimeric Fc fusion (human), sequence (P12318 34-217 H167R): as the sequence (P12318 34-217) above, with H134R counted along it

Row | binding relative to wt (wt = 1) | Substance
17 | 0.4 | Immunoglobulin with variant Fc region L235V, F243L, R292P, Y300L, P396L (antibody)
18 | 0.2 | Immunoglobulin with variant Fc region L234F, F243L, R292P, Y300L (antibody)
19 | 0.1 | Immunoglobulin with variant Fc region L235I, F243L, R292P, Y300L (antibody)

Each substance was assayed against FcγRIIB (CD32B), soluble dimeric Fc fusion (human) (UniProt P31994) (assay: method not given).

Row | binding relative to wt (wt = 1) | Substance
20 | 0.4 | Immunoglobulin with variant Fc region L235V, F243L, R292P, Y300L, P396L (antibody)
21 | 0.2 | Immunoglobulin with variant Fc region L234F, F243L, R292P, Y300L (antibody)
22 | 0.2 | Immunoglobulin with variant Fc region L235I, F243L, R292P, Y300L (antibody)

The substances below were run against FcγRIIIA 158F (CD16A F158), soluble monomer (human) (UniProt P08637) (assay: method not given).

Row | binding relative to wt (wt = 1) | Substance
23 | 4.8 | Immunoglobulin with variant Fc region L235V, F243L, R292P, Y300L, P396L (antibody)
24 | 1.6 | Immunoglobulin with variant Fc region L234F, F243L, R292P, Y300L (antibody)
25 | 3.3 | Immunoglobulin with variant Fc region L235I, F243L, R292P, Y300L (antibody)

What follows are substances tested against FcγRIIIA 158V (CD16A V158), soluble monomer (human) (UniProt P08637) (assay: method not given).

Row | Substance | binding relative to wt (wt = 1)
26 | Immunoglobulin with variant Fc region L234F, F243L, R292P, Y300L (antibody) | 1.7
27 | Immunoglobulin with variant Fc region L235Q, F243L, R292P, Y300L (antibody) | 1.8

Now from value to substance:

Row | binding relative to wt (wt = 1) | Substance
28 | 6.1 | Immunoglobulin with variant Fc region L235V, F243L, R292P, Y300L, P396L (antibody)
29 | 2.6 | Immunoglobulin with variant Fc region L235I, F243L, R292P, Y300L (antibody)

Each substance was assayed against FcγRIIIA 158F (CD16A F158), soluble monomer (human) (UniProt P08637) (assay: value on CD16A 158F over value on CD32B).

Row | Ratio of Affinities 16A-158F:32B | Substance
30 | 12 | Immunoglobulin with variant Fc region L235V, F243L, R292P, Y300L, P396L (antibody)
31 | 8 | Immunoglobulin with variant Fc region L234F, F243L, R292P, Y300L (antibody)
32 | 16.5 | Immunoglobulin with variant Fc region L235I, F243L, R292P, Y300L (antibody)

These substances were tested against FcγRIIIA 158V (CD16A V158), soluble monomer (human) (UniProt P08637) (assay: value on CD16A 158V over value on CD32B).

Row | Ratio of Affinities 16A-158V:32B | Substance
33 | 15 | Immunoglobulin with variant Fc region L235V, F243L, R292P, Y300L, P396L (antibody)
34 | 8.5 | Immunoglobulin with variant Fc region L234F, F243L, R292P, Y300L (antibody)
35 | 13 | Immunoglobulin with variant Fc region L235I, F243L, R292P, Y300L (antibody)

These substances were tested against FcγRIIA 131H (CD32A H131), soluble dimeric Fc fusion (human) (UniProt P12318) (assay: value on CD32A 131H over value on CD32B).

Row | Ratio of Affinities 32A-131H:32B | Substance
36 | 3.3 | Immunoglobulin with variant Fc region L235V, F243L, R292P, Y300L, P396L (antibody)
37 | 1.5 | Immunoglobulin with variant Fc region L234F, F243L, R292P, Y300L (antibody)
38 | 2.5 | Immunoglobulin with variant Fc region L235I, F243L, R292P, Y300L (antibody)

The substances below were run against FcγRIIIA 158F (CD16A F158), soluble monomer (human) (UniProt P08637) (assay: Biacore SPR; value on CD16A over value on CD32B).

Row | Ratio of Affinities CD16A F158/CD32B | Substance
39 | 4.32 | Immunoglobulin with variant Fc region R255L P396L D270E F243L (antibody)
40 | 0.63 | Immunoglobulin with variant Fc region R255L P396L (antibody)
41 | 5.55 | Immunoglobulin with variant Fc region K392T P396L D270E F243L (antibody)
42 | 0.77 | Immunoglobulin with variant Fc region K392T P396L (antibody)

What follows are substances tested against FcγRIIIA 158V (CD16A V158), soluble monomer (human) (UniProt P08637) (assay: Biacore SPR; value on CD16A over value on CD32B).

Row | Ratio of Affinities CD16A V158/CD32B | Substance
43 | 4.61 | Immunoglobulin with variant Fc region R255L P396L D270E F243L (antibody)
44 | 0.49 | Immunoglobulin with variant Fc region R255L P396L (antibody)
45 | 7.18 | Immunoglobulin with variant Fc region K392T P396L D270E F243L (antibody)
46 | 0.63 | Immunoglobulin with variant Fc region K392T P396L (antibody)

These substances were tested against FcγRIIA 131H (CD32A H131), soluble dimeric Fc fusion (human) (UniProt P12318) (assay: binding to human FcRs; method not given).

Row | Substance | fold change relative to wild-type affinity [fold]
47 | Immunoglobulin with variant Fc region R292P V305I F243L P396L (antibody) | -0.3
48 | Control immunoglobulin with variant Fc region E333A K334A S298A (AAA) (antibody) | -3.3
49 | Control immunoglobulin with variant Fc region S239D I332E A330L (XmAb) (antibody) | 0

Continued, values first:

Row | fold change relative to wild-type affinity [fold] | Substance
50 | -0.5 | Immunoglobulin with variant Fc region R292P (antibody)
51 | 0.4 | Immunoglobulin with variant Fc region F243L R292P P396L (antibody)

What follows are substances tested against FcγRIIB (CD32B), soluble dimeric Fc fusion (human) (UniProt P31994) (assay: binding to human FcRs; method not given).

Row | Substance | fold change relative to wild-type affinity [fold]
52 | Immunoglobulin with variant Fc region R292P V305I F243L P396L (antibody) | -1.6
53 | Control immunoglobulin with variant Fc region E333A K334A S298A (AAA) (antibody) | -2.5
54 | Control immunoglobulin with variant Fc region S239D I332E A330L (XmAb) (antibody) | 0.74

Continued, values first:

Row | fold change relative to wild-type affinity [fold] | Substance
55 | -2.7 | Immunoglobulin with variant Fc region R292P (antibody)
56 | -1.6 | Immunoglobulin with variant Fc region F243L R292P P396L (antibody)

Each substance was assayed against FcγRIIIA 158F (CD16A F158), soluble monomer (human) (UniProt P08637) (assay: binding to human FcRs; method not given).

Row | Substance | fold change relative to wild-type affinity [fold]
57 | Control immunoglobulin with variant Fc region E333A K334A S298A (AAA) (antibody) | 0.1
58 | Control immunoglobulin with variant Fc region S239D I332E A330L (XmAb) (antibody) | 8.1

Other lines, results leading:

Row | fold change relative to wild-type affinity [fold] | Substance
59 | 0.6 | Immunoglobulin with variant Fc region R292P (antibody)
60 | 2.4 | Immunoglobulin with variant Fc region F243L R292P P396L (antibody)

The substances below were run against FcγRIIIA 158V (CD16A V158), soluble monomer (human) (UniProt P08637) (assay: binding to human FcRs; method not given).

Row | fold change relative to wild-type affinity [fold] | Substance
61 | -3 | Immunoglobulin with variant Fc region R292P V305I F243L P396L (antibody)
62 | 5.3 | Immunoglobulin with variant Fc region F243L R292P P396L (antibody)
63 | 0.6 | Control immunoglobulin with variant Fc region E333A K334A S298A (AAA) (antibody)
64 | 13.9 | Control immunoglobulin with variant Fc region S239D I332E A330L (XmAb) (antibody)
